Test results published in patent publication US20040102611.

T1: HA-DRF1 (DRF1 with N-terminal HA epitope, expressed from pCDNAHAdrf1)
T1 chain: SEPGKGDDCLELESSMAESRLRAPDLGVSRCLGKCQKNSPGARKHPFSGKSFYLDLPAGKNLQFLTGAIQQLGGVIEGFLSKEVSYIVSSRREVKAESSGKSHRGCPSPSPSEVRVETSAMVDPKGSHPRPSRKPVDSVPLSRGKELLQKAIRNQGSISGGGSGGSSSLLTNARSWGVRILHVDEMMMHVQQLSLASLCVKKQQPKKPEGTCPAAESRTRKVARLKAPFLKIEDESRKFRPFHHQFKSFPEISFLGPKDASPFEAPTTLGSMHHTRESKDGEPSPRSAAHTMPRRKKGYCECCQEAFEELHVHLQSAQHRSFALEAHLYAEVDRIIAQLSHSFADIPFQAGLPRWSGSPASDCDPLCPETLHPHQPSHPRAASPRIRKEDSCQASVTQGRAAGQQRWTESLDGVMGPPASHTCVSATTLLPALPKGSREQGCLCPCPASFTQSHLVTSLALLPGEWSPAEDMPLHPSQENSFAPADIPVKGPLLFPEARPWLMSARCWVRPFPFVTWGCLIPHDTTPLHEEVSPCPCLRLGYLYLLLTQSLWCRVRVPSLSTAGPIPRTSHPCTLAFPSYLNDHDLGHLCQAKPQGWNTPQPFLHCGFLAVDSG

T2: DBF4 (human DBF4/ASK1), Q9UBU7
T2 chain: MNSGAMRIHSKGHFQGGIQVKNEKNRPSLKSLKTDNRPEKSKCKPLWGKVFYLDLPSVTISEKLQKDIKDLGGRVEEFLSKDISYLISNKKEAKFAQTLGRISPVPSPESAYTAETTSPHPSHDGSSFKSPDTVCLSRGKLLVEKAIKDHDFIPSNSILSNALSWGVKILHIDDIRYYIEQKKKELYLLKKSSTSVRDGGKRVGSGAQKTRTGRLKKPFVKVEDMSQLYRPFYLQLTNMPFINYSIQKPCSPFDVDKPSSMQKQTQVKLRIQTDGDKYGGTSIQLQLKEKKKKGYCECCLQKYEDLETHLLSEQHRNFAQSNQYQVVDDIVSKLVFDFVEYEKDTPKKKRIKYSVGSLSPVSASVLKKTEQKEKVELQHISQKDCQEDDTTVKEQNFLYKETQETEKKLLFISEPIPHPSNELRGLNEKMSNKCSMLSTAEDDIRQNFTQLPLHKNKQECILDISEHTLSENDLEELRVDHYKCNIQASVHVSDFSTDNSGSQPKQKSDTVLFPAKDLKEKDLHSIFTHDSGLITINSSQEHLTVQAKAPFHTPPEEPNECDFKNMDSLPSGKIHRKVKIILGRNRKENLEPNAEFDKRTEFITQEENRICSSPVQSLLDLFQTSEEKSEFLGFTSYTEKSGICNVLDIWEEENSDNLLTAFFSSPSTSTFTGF

B1: FLAG-tagged human CDC7 kinase, wild type (pCdc7FLAG-tagged, in pCMV-Tag2) (protein)
chain: MEASLGIQMDEPMAFSPQRDRFQAEGSLKKNEQNFKLAGVKKDIEKLYEAVPQLSNVFKIEDKIGEGTFSSVYLATAQLQVGPEEKIALKHLIPTSHPIRIAAELQCLTVAGGQDNVMGVKYCFRKNDHVVIAMPYLEHESFLDILNSLSFQEVREYMLNLFKALKRIHQFGIVHRDVKPSNFLYNRRLKKYALVDFGLAQGTHDTKIELLKFVQSEAQQERCSQNKSHIITGNKIPLSGPVPKELDQQSTTKASVKRPYTNAQIQIKQGKDGKEGSVGLSVQRSVFGERNFNIHSSISHESPAVKLMKQSKTVDVLSRKLATKKKAISTKVMNSAVMRKTASSCPASLTCDCYATDKVCSICLSRRQQVAPRAGTPGFRAPEVLTKCPNQTTAIDMWSAGVIFLSLLSGRYPFYKASDDLTALAQIMTIRGSRETIQAAKTFGKSILCSKEVPAQDLRKLCERLRGMDSSTPKLTSDIQGHASHQPAISEKTDHKASCLVQTPPGQYSGNSFKKGDSNSCEHCFDEYNTNLEGWNEVPDEAYDLLDKLLDLNPASRITAEEALLHPFFKDMSL
B2: FLAG-tagged human CDC7 kinase, kinase negative form K90R (pCdc7FLAG K90R) (protein)
chain: MEASLGIQMDEPMAFSPQRDRFQAEGSLKKNEQNFKLAGVKKDIEKLYEAVPQLSNVFKIEDKIGEGTFSSVYLATAQLQVGPEEKIALRHLIPTSHPIRIAAELQCLTVAGGQDNVMGVKYCFRKNDHVVIAMPYLEHESFLDILNSLSFQEVREYMLNLFKALKRIHQFGIVHRDVKPSNFLYNRRLKKYALVDFGLAQGTHDTKIELLKFVQSEAQQERCSQNKSHIITGNKIPLSGPVPKELDQQSTTKASVKRPYTNAQIQIKQGKDGKEGSVGLSVQRSVFGERNFNIHSSISHESPAVKLMKQSKTVDVLSRKLATKKKAISTKVMNSAVMRKTASSCPASLTCDCYATDKVCSICLSRRQQVAPRAGTPGFRAPEVLTKCPNQTTAIDMWSAGVIFLSLLSGRYPFYKASDDLTALAQIMTIRGSRETIQAAKTFGKSILCSKEVPAQDLRKLCERLRGMDSSTPKLTSDIQGHASHQPAISEKTDHKASCLVQTPPGQYSGNSFKKGDSNSCEHCFDEYNTNLEGWNEVPDEAYDLLDKLLDLNPASRITAEEALLHPFFKDMSL

How the values were obtained:
[1] = biological target: T1, HA-DRF1 (DRF1 with N-terminal HA …)
[2] = biological target: T2, DBF4 (human DBF4/ASK1), Q9UBU7

Row | Protein | phosphorylation of DRF1 (32P, FIG. 3 panel A) [1] | phosphorylation of MCM2 (1-285) by immunoprecipitated complexes (32P kinase assay, autoradiography) [1] | phosphorylation of MCM2 by CDC7 [1] | phosphorylation of MCM2 (1-285) by immunoprecipitated complexes (32P kinase assay, autoradiography) [2]
1 | B1 | DRF1, as DBF4, was detected as a phosphoprotein when expressed with wild type CDC7 but not with the kinase negative | In the presence of HA-DRF1 and wild-type CDC7, efficient phosphorylation of MCM2 (1-285) (above the background shown in lane 4, panel B) was observed | in the presence of DRF1, CDC7 is able to phosphorylate its physiological substrates MCM2 | DRF1 is a regulatory subunit of CDC7 able to induce its kinase activity in a way comparable to DBF4 (lane 5)
2 | B2 |  | it can be abolished by overexpression of the mutant K90R (lanes 1 and 6) |  | 
